In patent US20250043028A1 (Hoffmann-La Roche, published 2025):

Columns and labels:
[1] = target: human MCSP expressed on tumor cells (Colo-38, WM266-4, MV-3) (human, UniProt Q6UVK1 30-2322); assay: cell-based or functional assay
[2] = target: T1, human CEA expressed on tumor cells (LS-174T, MKN-45, MC38-huCEA) (human, UniProt P06731 35-685); assay: cell-based or functional assay
T1 sequence (looked up): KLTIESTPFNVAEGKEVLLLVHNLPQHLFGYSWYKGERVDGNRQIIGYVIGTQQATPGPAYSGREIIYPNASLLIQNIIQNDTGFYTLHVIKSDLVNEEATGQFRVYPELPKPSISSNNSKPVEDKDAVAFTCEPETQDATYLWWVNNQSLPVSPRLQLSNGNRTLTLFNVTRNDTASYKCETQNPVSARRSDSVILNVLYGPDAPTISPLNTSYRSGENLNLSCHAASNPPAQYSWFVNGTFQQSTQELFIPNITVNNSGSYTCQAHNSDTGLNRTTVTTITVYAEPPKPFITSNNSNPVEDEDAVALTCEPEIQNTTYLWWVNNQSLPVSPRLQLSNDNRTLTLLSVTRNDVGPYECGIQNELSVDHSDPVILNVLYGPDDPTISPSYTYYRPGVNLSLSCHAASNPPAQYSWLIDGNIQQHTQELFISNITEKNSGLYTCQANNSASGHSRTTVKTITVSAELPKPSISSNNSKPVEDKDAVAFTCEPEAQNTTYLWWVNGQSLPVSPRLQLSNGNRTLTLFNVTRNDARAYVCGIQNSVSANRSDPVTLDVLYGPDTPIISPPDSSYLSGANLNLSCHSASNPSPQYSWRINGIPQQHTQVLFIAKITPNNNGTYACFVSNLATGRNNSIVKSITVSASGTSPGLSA

human MCSP expressed on tumor cells (Colo-38, WM266-4, MV-3), sequence (Q6UVK1 30-2322): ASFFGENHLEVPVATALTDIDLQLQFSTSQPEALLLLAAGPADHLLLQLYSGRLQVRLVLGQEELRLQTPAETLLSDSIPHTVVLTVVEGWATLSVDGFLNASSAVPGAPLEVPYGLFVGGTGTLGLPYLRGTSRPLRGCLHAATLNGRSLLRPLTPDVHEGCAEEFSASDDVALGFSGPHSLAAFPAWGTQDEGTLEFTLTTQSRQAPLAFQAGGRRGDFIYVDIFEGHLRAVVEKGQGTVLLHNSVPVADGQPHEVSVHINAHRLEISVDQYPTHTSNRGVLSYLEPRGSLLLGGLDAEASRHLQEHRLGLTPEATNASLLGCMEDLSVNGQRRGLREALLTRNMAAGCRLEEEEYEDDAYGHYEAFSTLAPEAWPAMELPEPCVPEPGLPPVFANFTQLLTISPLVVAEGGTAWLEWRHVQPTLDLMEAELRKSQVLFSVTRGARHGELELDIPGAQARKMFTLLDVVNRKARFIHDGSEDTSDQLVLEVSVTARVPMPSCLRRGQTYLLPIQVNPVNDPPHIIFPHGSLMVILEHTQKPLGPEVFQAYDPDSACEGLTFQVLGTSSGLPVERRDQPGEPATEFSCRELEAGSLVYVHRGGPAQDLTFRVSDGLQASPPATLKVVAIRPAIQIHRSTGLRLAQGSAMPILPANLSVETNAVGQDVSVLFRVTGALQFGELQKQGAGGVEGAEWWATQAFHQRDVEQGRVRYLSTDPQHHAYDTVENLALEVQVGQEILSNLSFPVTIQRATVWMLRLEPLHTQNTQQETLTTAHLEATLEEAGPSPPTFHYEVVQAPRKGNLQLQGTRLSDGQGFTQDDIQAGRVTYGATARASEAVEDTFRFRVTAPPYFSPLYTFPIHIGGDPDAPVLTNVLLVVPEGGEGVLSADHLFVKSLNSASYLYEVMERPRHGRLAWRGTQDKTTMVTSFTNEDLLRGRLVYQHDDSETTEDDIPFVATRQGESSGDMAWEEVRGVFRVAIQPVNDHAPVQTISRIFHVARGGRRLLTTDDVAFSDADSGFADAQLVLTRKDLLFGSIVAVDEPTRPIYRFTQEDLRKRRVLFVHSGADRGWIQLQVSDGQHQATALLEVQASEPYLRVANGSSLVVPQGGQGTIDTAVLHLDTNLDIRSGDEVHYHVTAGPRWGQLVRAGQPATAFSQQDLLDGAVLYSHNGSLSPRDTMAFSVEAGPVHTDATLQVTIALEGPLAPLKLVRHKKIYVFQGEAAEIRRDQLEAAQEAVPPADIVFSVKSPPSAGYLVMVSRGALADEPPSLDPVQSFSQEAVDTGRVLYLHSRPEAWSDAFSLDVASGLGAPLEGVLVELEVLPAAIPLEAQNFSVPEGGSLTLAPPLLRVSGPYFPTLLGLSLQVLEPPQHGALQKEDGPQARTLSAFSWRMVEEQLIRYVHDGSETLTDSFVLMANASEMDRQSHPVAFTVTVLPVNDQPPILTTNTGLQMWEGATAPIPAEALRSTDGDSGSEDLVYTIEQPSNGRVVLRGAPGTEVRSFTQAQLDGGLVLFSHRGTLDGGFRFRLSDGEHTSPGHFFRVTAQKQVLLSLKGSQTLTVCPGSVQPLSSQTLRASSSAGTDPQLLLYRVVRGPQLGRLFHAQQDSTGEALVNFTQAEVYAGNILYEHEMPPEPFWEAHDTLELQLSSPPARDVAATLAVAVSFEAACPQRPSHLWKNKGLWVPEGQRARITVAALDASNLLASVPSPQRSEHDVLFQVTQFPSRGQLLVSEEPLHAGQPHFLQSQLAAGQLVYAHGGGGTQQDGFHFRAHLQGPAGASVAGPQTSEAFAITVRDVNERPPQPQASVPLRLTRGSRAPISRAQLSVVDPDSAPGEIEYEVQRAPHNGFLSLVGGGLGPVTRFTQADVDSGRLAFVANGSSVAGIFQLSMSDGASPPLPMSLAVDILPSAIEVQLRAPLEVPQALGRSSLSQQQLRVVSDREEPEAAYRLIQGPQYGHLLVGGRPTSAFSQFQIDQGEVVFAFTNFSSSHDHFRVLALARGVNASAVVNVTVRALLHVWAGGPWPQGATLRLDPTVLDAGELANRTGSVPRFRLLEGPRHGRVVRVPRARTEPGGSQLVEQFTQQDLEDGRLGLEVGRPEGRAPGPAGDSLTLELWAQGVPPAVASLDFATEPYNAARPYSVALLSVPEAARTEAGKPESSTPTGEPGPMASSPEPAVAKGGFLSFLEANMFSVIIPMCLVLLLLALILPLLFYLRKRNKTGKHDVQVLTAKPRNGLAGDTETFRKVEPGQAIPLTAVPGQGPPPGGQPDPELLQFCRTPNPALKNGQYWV

B1: “1+1 IgG Crossfab”; VL/VH exchange (LC007/V9) (anti-MCSP/anti-huCD3) (bispecific antibody)
chain 1: DIVLTQSPSSLSASLGDRVTISCSASQGIRNYLNWYQQRPDGTVKLLIYYTSSLHSGVPSRFSGSGSGTDYSLTISNLEPEDIATYYCQQYSKLPWTFGGGTKLEIKRTVAAPSVFIFPPSDEQLKSGTASVVCLLNNFYPREAKVQWKVDNALQSGNSQESVTEQDSKDSTYSLSSTLTLSKADYEKHKVYACEVTHQGLSSPVTKSFNRGEC
chain 2: DIQMTQSPSSLSASVGDRVTITCRASQDIRNYLNWYQQKPGKAPKLLIYYTSRLESGVPSRFSGSGSGTDYTLTISSLQPEDFATYYCQQGNTLPWTFGQGTKVEIKSSASTKGPSVFPLAPSSKSTSGGTAALGCLVKDYFPEPVTVSWNSGALTSGVHTFPAVLQSSGLYSLSSVVTVPSSSLGTQTYICNVNHKPSNTKVDKKVEPKSCGGGGSGGGGSEVQLQESGPGLVKPSQSLSLTCSVTGYSITSGYYWNWIRQFPGNKLEWMGYITYDGSNNYNPSLKNRISITRDTSKNQFFLKLNSVTTEDTATYYCADFDYWGQGTTLTVSSASTKGPSVFPLAPSSKSTSGGTAALGCLVKDYFPEPVTVSWNSGALTSGVHTFPAVLQSSGLYSLSSVVTVPSSSLGTQTYICNVNHKPSNTKVDKKVEPKSCDKTHTCPPCPAPEAAGGPSVFLFPPKPKDTLMISRTPEVTCVVVDVSHEDPEVKFNWYVDGVEVHNAKTKPREEQYNSTYRVVSVLTVLHQDWLNGKEYKCKVSNKALGAPIEKTISKAKGQPREPQVCTLPPSRDELTKNQVSLSCAVKGFYPSDIAVEWESNGQPENNYKTTPPVLDSDGSFFLVSKLTVDKSRWQQGNVFSCSVMHEALHNHYTQKSLSLSPGK
chain 3: EVQLVESGGGLVQPGGSLRLSCAASGYSFTGYTMNWVRQAPGKGLEWVALINPYKGVSTYNQKFKDRFTISVDKSKNTAYLQMNSLRAEDTAVYYCARSGYYGDSDWYFDVWGQGTLVTVSSASVAAPSVFIFPPSDEQLKSGTASVVCLLNNFYPREAKVQWKVDNALQSGNSQESVTEQDSKDSTYSLSSTLTLSKADYEKHKVYACEVTHQGLSSPVTKSFNRGEC
chain 4: not shown
- EC50 of killing (LDH release) of MV-3 cells, human PBMCs, E:T 10:1, 21 h [1]: 40.9 pM
- EC50 of killing (LDH release) of WM266-4 cells, human PBMCs, E:T 10:1, 21 h [1]: 28.4 pM

B2: “1+1 CrossMab”; CL/CH1 exchange (LC007/V9) (anti-MCSP/anti-huCD3) (bispecific antibody)
chain 1: DIVLTQSPSSLSASLGDRVTISCSASQGIRNYLNWYQQRPDGTVKLLIYYTSSLHSGVPSRFSGSGSGTDYSLTISNLEPEDIATYYCQQYSKLPWTFGGGTKLEIKRTVAAPSVFIFPPSDEQLKSGTASVVCLLNNFYPREAKVQWKVDNALQSGNSQESVTEQDSKDSTYSLSSTLTLSKADYEKHKVYACEVTHQGLSSPVTKSFNRGEC
chain 2: EVQLQESGPGLVKPSQSLSLTCSVTGYSITSGYYWNWIRQFPGNKLEWMGYITYDGSNNYNPSLKNRISITRDTSKNQFFLKLNSVTTEDTATYYCADFDYWGQGTTLTVSSASTKGPSVFPLAPSSKSTSGGTAALGCLVKDYFPEPVTVSWNSGALTSGVHTFPAVLQSSGLYSLSSVVTVPSSSLGTQTYICNVNHKPSNTKVDKKVEPKSCDKTHTCPPCPAPEAAGGPSVFLFPPKPKDTLMISRTPEVTCVVVDVSHEDPEVKFNWYVDGVEVHNAKTKPREEQYNSTYRVVSVLTVLHQDWLNGKEYKCKVSNKALGAPIEKTISKAKGQPREPQVCTLPPSRDELTKNQVSLSCAVKGFYPSDIAVEWESNGQPENNYKTTPPVLDSDGSFFLVSKLTVDKSRWQQGNVFSCSVMHEALHNHYTQKSLSLSPGK
chain 3: DIQMTQSPSSLSASVGDRVTITCRASQDIRNYLNWYQQKPGKAPKLLIYYTSRLESGVPSRFSGSGSGTDYTLTISSLQPEDFATYYCQQGNTLPWTFGQGTKVEIKSSASTKGPSVFPLAPSSKSTSGGTAALGCLVKDYFPEPVTVSWNSGALTSGVHTFPAVLQSSGLYSLSSVVTVPSSSLGTQTYICNVNHKPSNTKVDKKVEPKSC
chain 4: not shown
- EC50 of killing (LDH release) of MV-3 cells, human PBMCs, E:T 10:1, 21 h [1]: 88.4 pM
- EC50 of killing (LDH release) of WM266-4 cells, human PBMCs, E:T 10:1, 21 h [1]: 53.9 pM

B3: “1+1 IgG Crossfab light chain (LC) fusion” (CH1A1A/V9) (anti-CEA/anti-huCD3) (bispecific antibody)
chain 1: DIQMTQSPSSLSASVGDRVTITCRASQDIRNYLNWYQQKPGKAPKLLIYYTSRLESGVPSRFSGSGSGTDYTLTISSLQPEDFATYYCQQGNTLPWTFGQGTKVEIKSSASTKGPSVFPLAPSSKSTSGGTAALGCLVKDYFPEPVTVSWNSGALTSGVHTFPAVLQSSGLYSLSSVVTVPSSSLGTQTYICNVNHKPSNTKVDKKVEPKSC
chain 2: DIQMTQSPSSLSASVGDRVTITCKASAAVGTYVAWYQQKPGKAPKLLIYSASYRKRGVPSRFSGSGSGTDFTLTISSLQPEDFATYYCHQYYTYPLFTFGQGTKLEIKRTVAAPSVFIFPPSDEQLKSGTASVVCLLNNFYPREAKVQWKVDNALQSGNSQESVTEQDSKDSTYSLSSTLTLSKADYEKHKVYACEVTHQGLSSPVTKSFNRGECGGGGSGGGGSGGGGSGGGGSEVQLVESGGGLVQPGGSLRLSCAASGYSFTGYTMNWVRQAPGKGLEWVALINPYKGVSTYNQKFKDRFTISVDKSKNTAYLQMNSLRAEDTAVYYCARSGYYGDSDWYFDVWGQGTLVTVSSASVAAPSVFIFPPSDEQLKSGTASVVCLLNNFYPREAKVQWKVDNALQSGNSQESVTEQDSKDSTYSLSSTLTLSKADYEKHKVYACEVTHQGLSSPVTKSFNRGEC
chain 3: not shown
chain 4: DKTHTCPPCPAPEAAGGPSVFLFPPKPKDTLMISRTPEVTCVVVDVSHEDPEVKFNWYVDGVEVHNAKTKPREEQYNSTYRVVSVLTVLHQDWLNGKEYKCKVSNKALGAPIEKTISKAKGQPREPQVCTLPPSRDELTKNQVSLSCAVKGFYPSDIAVEWESNGQPENNYKTTPPVLDSDGSFFLVSKLTVDKSRWQQGNVFSCSVMHEALHNHYTQKSLSLSPGK
- EC50 of apoptosis induction (LDH release) in LS-174T cells, human PBMCs, E:T 10:1, 28 h [2]: 1560 pM
- EC50 of apoptosis induction (LDH release) in MC38-huCEA cells, human PBMCs, E:T 10:1, 24 h [2]: ~3200 pM
- EC50 of apoptosis induction (LDH release) in MKN-45 cells, human PBMCs, E:T 10:1, 28 h [2]: 213 pM

B4: “2+1 IgG Crossfab”; CL/CH1 exchange (M4-3 ML2/V9) (anti-MCSP/anti-huCD3) (bispecific antibody)
chain 1: DIQMTQSPSSLSASVGDRVTITCRASQDIRNYLNWYQQKPGKAPKLLIYYTSRLESGVPSRFSGSGSGTDYTLTISSLQPEDFATYYCQQGNTLPWTFGQGTKVEIKSSASTKGPSVFPLAPSSKSTSGGTAALGCLVKDYFPEPVTVSWNSGALTSGVHTFPAVLQSSGLYSLSSVVTVPSSSLGTQTYICNVNHKPSNTKVDKKVEPKSC
chain 2: not shown
chain 3: QVQLQESGPGLVKPSQTLSLTCTVSGGSITSGYYWNWIRQHPGKGLEWIGYITYDGSNNYNPSLKSRVTISRDTSKNQFSLKLSSVTAADTAVYYCADFDYWGQGTLVTVSSASTKGPSVFPLAPSSKSTSGGTAALGCLVKDYFPEPVTVSWNSGALTSGVHTFPAVLQSSGLYSLSSVVTVPSSSLGTQTYICNVNHKPSNTKVDKKVEPKSCDKTHTCPPCPAPEAAGGPSVFLFPPKPKDTLMISRTPEVTCVVVDVSHEDPEVKFNWYVDGVEVHNAKTKPREEQYNSTYRVVSVLTVLHQDWLNGKEYKCKVSNKALGAPIEKTISKAKGQPREPQVCTLPPSRDELTKNQVSLSCAVKGFYPSDIAVEWESNGQPENNYKTTPPVLDSDGSFFLVSKLTVDKSRWQQGNVFSCSVMHEALHNHYTQKSLSLSPGK
chain 4: not shown
- EC50 of killing (LDH release) of MV-3 cells, human PBMCs, E:T 10:1, 27 h [1]: ~11.7 pM
- EC50 of killing (LDH release) of WM266-4 cells, human PBMCs, E:T 10:1, 26 h [1]: 12.9 pM

B5: “2+1 IgG Crossfab”; VL/VH exchange (M4-3 ML2/V9) (anti-MCSP/anti-huCD3) (bispecific antibody)
chain 1: EVQLVESGGGLVQPGGSLRLSCAASGYSFTGYTMNWVRQAPGKGLEWVALINPYKGVSTYNQKFKDRFTISVDKSKNTAYLQMNSLRAEDTAVYYCARSGYYGDSDWYFDVWGQGTLVTVSSASVAAPSVFIFPPSDEQLKSGTASVVCLLNNFYPREAKVQWKVDNALQSGNSQESVTEQDSKDSTYSLSSTLTLSKADYEKHKVYACEVTHQGLSSPVTKSFNRGEC
chain 2: not shown
chain 3: not shown
chain 4: QVQLQESGPGLVKPSQTLSLTCTVSGGSITSGYYWNWIRQHPGKGLEWIGYITYDGSNNYNPSLKSRVTISRDTSKNQFSLKLSSVTAADTAVYYCADFDYWGQGTLVTVSSASTKGPSVFPLAPSSKSTSGGTAALGCLVKDYFPEPVTVSWNSGALTSGVHTFPAVLQSSGLYSLSSVVTVPSSSLGTQTYICNVNHKPSNTKVDKKVEPKSCDKTHTCPPCPAPEAAGGPSVFLFPPKPKDTLMISRTPEVTCVVVDVSHEDPEVKFNWYVDGVEVHNAKTKPREEQYNSTYRVVSVLTVLHQDWLNGKEYKCKVSNKALGAPIEKTISKAKGQPREPQVCTLPPSRDELTKNQVSLSCAVKGFYPSDIAVEWESNGQPENNYKTTPPVLDSDGSFFLVSKLTVDKSRWQQGNVFSCSVMHEALHNHYTQKSLSLSPGK
- EC50 of killing (LDH release) of MV-3 cells, human PBMCs, E:T 10:1, 27 h [1]: ~82.2 pM
- EC50 of killing (LDH release) of WM266-4 cells, human PBMCs, E:T 10:1, 26 h [1]: 16.8 pM
